The labels stand for the following.
B1: LINE1-mini (parent)
chain: GGCAGAGCUCAACACAGCGUGGCAAAGUGGCUGUGGCUAGACUGCC

Variants of B1 are the subject of the series. Put plainly: self-cleavage, relative activity (ratio to wild type); higher = more cleavage; in vitro, sequencing; the parent is a self-cleaving ribozyme.
As to A4U A12U, the self-cleavage came out at 0.12.

A4U A12C: the self-cleavage came out at 0.03.

Take A4U A12G: the self-cleavage was found to be 0.05.

As to A4G G36A, the self-cleavage came out at 0.54.

A4G G36C: the self-cleavage stood at 0.16.

Consider A4G G36U, for which the self-cleavage amounted to 0.09.

As for A4C G21U, the self-cleavage amounted to 0.21.

As to A4C G21A, the self-cleavage amounted to 0.42.

With A4C G21C, the self-cleavage came to 0.18.

For A4G A12U, the self-cleavage was 0.11.

Take A4G A12G: the self-cleavage worked out at 0.05.

With A4G A12C, the self-cleavage came to 0.03.

With A4G A16G, the self-cleavage is 0.16.

As to A4G A16U, the self-cleavage turned out to be 0.16.

Take A4G A16C: the self-cleavage is 0.12.

On to A4U G36U, for which the self-cleavage was 0.08.

As to A4U G36A, the self-cleavage worked out at 0.12.

Consider A4U G36C, for which the self-cleavage was found to be 0.07.

In the case of A4G G30C, the self-cleavage turned out to be 0.91.

As for A4G G30A, the self-cleavage amounted to 1.37.

Take A4G G30U: the self-cleavage turned out to be 0.45.

Consider A4G C10U, for which the self-cleavage came out at 0.22.

Turning to A4G C10G, the self-cleavage was 0.05.

For A4G C10A, the self-cleavage was found to be 0.06.

On to A4G C46U, for which the self-cleavage came to 0.39.

Take A4G C46A: the self-cleavage was found to be 0.4.

With A4G C46G, the self-cleavage is 0.24.

On to A4U G21U, for which the self-cleavage worked out at 0.35.

In the case of A4U G21C, the self-cleavage was 0.24.

On to A4U G21A, for which the self-cleavage is 0.48.

For A4U A16G, the self-cleavage worked out at 0.12.

In the case of A4U A16U, the self-cleavage was found to be 0.15.

For A4U A16C, the self-cleavage amounted to 0.19.

Turning to A4C G29C, the self-cleavage amounted to 0.24.

In the case of A4C G29A, the self-cleavage was determined as 0.07.

With A4C G29U, the self-cleavage turned out to be 0.45.

As to A4C G27A, the self-cleavage was found to be 0.17.

Consider A4C G27C, for which the self-cleavage came out at 0.07.

On to A4C G27U, for which the self-cleavage was 0.07.

Regarding A4G C37U, the self-cleavage came out at 0.13.

With A4G C37A, the self-cleavage came to 0.06.

A4G C37G: the self-cleavage amounted to 0.07.

Regarding A4G G5A, the self-cleavage was 0.15.

For the variant A4G G5C, the self-cleavage was found to be 0.07.

A4G G5U: the self-cleavage was 0.16.

A4G U38C: the self-cleavage was 0.31.

Turning to A4G U38G, the self-cleavage was determined as 0.04.

For A4G U38A, the self-cleavage was determined as 0.23.

For A4C G22A, the self-cleavage was 0.09.

As for A4C G22U, the self-cleavage turned out to be 0.52.

For the variant A4C G22C, the self-cleavage was 0.08.

For the variant A4C U28A, the self-cleavage stood at 0.07.

Regarding A4C U28G, the self-cleavage turned out to be 0.18.

For A4C U28C, the self-cleavage came to 0.22.

As for A4C C37U, the self-cleavage was 0.16.

On to A4C C37G, for which the self-cleavage amounted to 0.05.

In the case of A4C C37A, the self-cleavage stood at 0.28.

As to A4U C10U, the self-cleavage came to 0.19.

Consider A4U C10G, for which the self-cleavage came to 0.06.

Turning to A4U C10A, the self-cleavage was 0.04.

As for A4G G17C, the self-cleavage worked out at 0.5.

Take A4G G17A: the self-cleavage was 0.06.

With A4G G17U, the self-cleavage came out at 0.18.

For the variant A4C C31U, the self-cleavage worked out at 0.06.

As to A4C C31A, the self-cleavage came to 0.14.

Turning to A4C C31G, the self-cleavage came to 0.06.

Regarding A4G C31A, the self-cleavage is 0.12.

A4G C31G: the self-cleavage worked out at 0.31.

A4G C31U: the self-cleavage was 0.14.

In the case of A4G G35C, the self-cleavage came out at 0.1.

A4G G35U: the self-cleavage is 0.19.

In the case of A4G G35A, the self-cleavage came to 0.15.

On to A4U A6C, for which the self-cleavage came out at 0.06.

Consider A4U A6U, for which the self-cleavage stood at 0.13.

Consider A4U A6G, for which the self-cleavage stood at 0.16.

With A4G U34C, the self-cleavage was 0.12.

Consider A4G U34G, for which the self-cleavage worked out at 0.08.

Regarding A4G U34A, the self-cleavage was 0.07.

As for A4U U28A, the self-cleavage was 0.19.

For A4U U28C, the self-cleavage came out at 0.32.

As to A4U U28G, the self-cleavage came out at 0.17.

Take A4C U20A: the self-cleavage worked out at 0.08.

On to A4C U20G, for which the self-cleavage amounted to 0.1.

Turning to A4C U20C, the self-cleavage amounted to 0.05.

As for A4U G7C, the self-cleavage was 0.18.

For A4U G7A, the self-cleavage worked out at 0.31.

In the case of A4U G7U, the self-cleavage is 0.2.

Consider A4G C8U, for which the self-cleavage was 0.24.

For the variant A4G C8G, the self-cleavage is 0.11.

Turning to A4G C8A, the self-cleavage is 0.32.

For A4U A39C, the self-cleavage amounted to 0.27.

Consider A4U A39G, for which the self-cleavage came to 0.07.

As to A4U A39U, the self-cleavage stood at 0.11.

Consider A4G G19C, for which the self-cleavage worked out at 0.23.

As to A4G G19A, the self-cleavage is 0.95.

For A4G G19U, the self-cleavage is 0.56.

With A4C G5C, the self-cleavage was determined as 0.08.

Take A4C G5U: the self-cleavage amounted to 0.21.

Take A4C G5A: the self-cleavage is 0.12.

For the variant A4G G7C, the self-cleavage was found to be 0.15.

Turning to A4G G7A, the self-cleavage came to 0.25.

On to A4G G7U, for which the self-cleavage is 0.18.

Regarding A4U G27A, the self-cleavage came out at 0.19.

In the case of A4U G27U, the self-cleavage is 0.14.

With A4U G27C, the self-cleavage was determined as 0.17.

As to A4G C45U, the self-cleavage came out at 0.6.

For A4G C45G, the self-cleavage was found to be 0.37.

As for A4G C45A, the self-cleavage came out at 0.45.

For the variant A4U A41G, the self-cleavage is 0.05.

Consider A4U A41U, for which the self-cleavage came to 0.12.

On to A4U A41C, for which the self-cleavage was 0.11.

For A4C G17U, the self-cleavage was found to be 0.08.

For the variant A4C G17A, the self-cleavage was 0.08.

For A4C G17C, the self-cleavage was determined as 0.08.

As to A4C C13G, the self-cleavage was found to be 0.17.

For the variant A4C C13U, the self-cleavage came out at 0.35.

A4C C13A: the self-cleavage came to 0.15.

As to A4U G17U, the self-cleavage worked out at 0.16.

Turning to A4U G17C, the self-cleavage is 0.06.

In the case of A4U G17A, the self-cleavage was determined as 0.06.

As for A4C C10G, the self-cleavage turned out to be 0.03.

For the variant A4C C10U, the self-cleavage turned out to be 0.09.

Turning to A4G C18U, the self-cleavage is 0.55.

As for A4G C18A, the self-cleavage was 0.31.

Turning to A4G C18G, the self-cleavage turned out to be 0.16.

Consider A4G G27C, for which the self-cleavage is 0.24.

Turning to A4G G27U, the self-cleavage came to 0.31.

Regarding A4G G27A, the self-cleavage stood at 0.4.

With A4G G29U, the self-cleavage turned out to be 0.63.

Consider A4G G29C, for which the self-cleavage is 0.12.

Take A4G G29A: the self-cleavage came to 0.36.

With A4U G5C, the self-cleavage was 0.45.

In the case of A4U G5U, the self-cleavage came to 0.12.

A4U G5A: the self-cleavage came out at 0.1.

Regarding A4G A6C, the self-cleavage amounted to 0.14.

For the variant A4G A6G, the self-cleavage stood at 0.11.

With A4G A6U, the self-cleavage is 0.27.

For A4U C13A, the self-cleavage amounted to 0.12.

For the variant A4U C13G, the self-cleavage is 0.1.

Take A4U C13U: the self-cleavage was found to be 0.14.

As to A4U G30C, the self-cleavage worked out at 0.21.

Consider A4U G30A, for which the self-cleavage is 0.42.

Take A4U G30U: the self-cleavage was found to be 0.22.

With A4G G21U, the self-cleavage is 0.68.

As to A4G G21C, the self-cleavage was determined as 0.24.

Turning to A4G G21A, the self-cleavage worked out at 1.05.

For the variant A4G U20A, the self-cleavage turned out to be 0.19.

As to A4G U20C, the self-cleavage was 0.48.

Turning to A4G U20G, the self-cleavage came to 0.23.

Regarding A4U U20G, the self-cleavage stood at 0.09.

For A4U U20A, the self-cleavage was 0.12.

Turning to A4U U20C, the self-cleavage was determined as 0.13.

For A4G A25C, the self-cleavage was 0.78.

On to A4G A25U, for which the self-cleavage is 0.62.

A4G A25G: the self-cleavage amounted to 0.36.

As for A4C C23A, the self-cleavage was 0.25.

Turning to A4C C23G, the self-cleavage is 0.23.

Turning to A4C C23U, the self-cleavage was determined as 0.16.

Consider A4C U34G, for which the self-cleavage amounted to 0.02.

A4C U34C: the self-cleavage was 0.15.

With A4C U34A, the self-cleavage was found to be 0.

A4U A14U: the self-cleavage amounted to 0.1.

Consider A4U A14C, for which the self-cleavage came to 0.12.

As to A4U A14G, the self-cleavage was 0.15.

Regarding A4G A39G, the self-cleavage was 0.22.

As for A4G A39U, the self-cleavage stood at 0.33.

As for A4G A39C, the self-cleavage was 0.06.

Source of the values: the RNAGym collection of RNA variant scans (doi:10.7554/elife.90254).
